Starred links: 1 amine or outer side, 2 acyl side, 3 side chain; linkers in the order of their positions; H or OH if unused. No end group written: not given here. SO3H = sulfated tyrosine (Y*), O=S(=O)(O)[*:2]
What was measured:
Conditions in all cases: remark: other sources report otherwise
[1] = biological target: Y1 scFv; test: competition ELISA, peptide 200 µM preincubated with Y1 (0.25 µg/well), glycocalicin-coated plate
[2] = biological target: Y1 scFv; test: competition ELISA, peptide 0.5 µM preincubated with Y1 (0.25 µg/well), glycocalicin-coated plate
[3] = biological target: Y1 scFv; test: competition FACS, peptide 2.5 µM preincubated with Y1-scFv, washed platelets
[4] = biological target: Y1 scFv; test: competition ELISA, peptide 25 µM preincubated with Y1 (0.25 µg/well), glycocalicin-coated plate
[5] = biological target: Y1 scFv; test: competition ELISA, peptide 2.5 µM preincubated with Y1 (0.25 µg/well), glycocalicin-coated plate
[6] = biological target: Y1 scFv; test: competition FACS, peptide 200 µM preincubated with Y1-scFv, washed platelets

Chain of Y1 scFv (chain, as listed by the source): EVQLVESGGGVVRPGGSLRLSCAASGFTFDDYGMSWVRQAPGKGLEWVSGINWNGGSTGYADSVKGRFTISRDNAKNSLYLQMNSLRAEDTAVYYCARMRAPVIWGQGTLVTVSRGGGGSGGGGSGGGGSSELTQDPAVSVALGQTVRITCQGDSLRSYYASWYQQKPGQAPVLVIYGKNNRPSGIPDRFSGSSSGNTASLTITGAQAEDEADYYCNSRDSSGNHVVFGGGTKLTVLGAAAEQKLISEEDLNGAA

Residual Binding of Y1 (% of baseline) [1]: 0% | Residual Binding of Y1 (% of baseline) [2]: 89% | Residual Binding of Y1 (% of baseline) (Geo Mean) [3]: 41% | Residual Binding of Y1 (% of baseline) [4]: 25% | Residual Binding of Y1 (% of baseline) [5]: 62% | Residual Binding of Y1 (% of baseline) (Geo Mean) [6]: 5%
Binder: GDEGDTDLY(SO3H)DY(SO3H)Y(SO3H)PEEDTE [P-1-S peptide (residues 268-285 of GPIbα, sulfated)]

— US20040001822A1, “Y1-isolated molecules comprising epitopes containing sulfated moieties, antibodies to such epitopes, and uses thereof” (priority 2000, published 2004)
